Bridge positions count the residues as written; N and C are the ends. Square brackets hold non-standard residues; d marks the D form. Hyp = O=C(O)[C@@H]1C[C@@H](O)CN1; NMeNle = CCCC[C@H](NC)C(=O)O; NMeA = CN[C@@H](C)C(=O)O; Dap = NC[C@H](N)C(=O)O
What was measured:
hPDL1(19-239)-TVMV-His [1] = biological target: T1, hPDL1(19-239)-TVMV-His (human, UniProt Q9NZQ7 19-239); assay: HTRF competition of PD-1-Ig binding to PD-L1-His; code B=0.004-0.0099 µM
T1 construct: Expressed in HEK293T cells; The text says amino acids 18-239, but the construct is named hPD-L1(19-239); The whole entry, including the TVMV site and His tag, is the protein used in the assay; also called PD-L1-TVMV-His; PD-L1-His
T1 sequence (Q9NZQ7 other isoform, or with tags, fused parts or gaps limits assumed): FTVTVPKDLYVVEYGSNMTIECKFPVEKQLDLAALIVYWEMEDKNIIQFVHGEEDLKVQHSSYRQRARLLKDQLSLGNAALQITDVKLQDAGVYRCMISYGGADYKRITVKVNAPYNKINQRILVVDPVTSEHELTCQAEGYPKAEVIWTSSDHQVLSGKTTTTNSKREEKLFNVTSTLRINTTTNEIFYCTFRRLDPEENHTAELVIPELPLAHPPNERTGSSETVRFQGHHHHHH
Method: (§1) Homogenous Time-Resolved Fluorescence (HTRF) Assays of Binding of Soluble PD-1 to Soluble PD-L1. Soluble PD-1 and soluble PD-L1 refers to proteins with carboxyl-end truncations that remove the transmembrane-spanning regions and are fused to heterologous sequences, specifically the Fc portion of the human immunoglobuling G sequence (Ig) or the hexahistidine epitope tag (His). All binding studies were performed in an HTRF assay buffer consisting of dPBS supplemented with 0.1% (w/v) bovine serum albumin and 0.05% (v/v) Tween-20. For the PD-1-Ig/PD-L1-His binding assay, inhibitors were pre-incubated with PD-L1-His (10 nM final) for 15 m in 4 μl of assay buffer, followed by addition of PD-1-Ig (20 nM final) in 1 μl of assay buffer and further incubation for 15 m. PD-L1 fusion proteins from either human, cynomologous macaques, mouse, or other species were used. HTRF detection was achieved using europium crypate-labeled anti-Ig monoclonal antibody (1 nM final) and allophycocyanin (APC) labeled anti-His monoclonal antibody (20 nM final). Antibodies were diluted in HTRF detection buffer and 5 μl was dispensed on top of binding reaction. The reaction was allowed to equilibrate for 30 minutes and signal (665 nm/620 nm ratio) was obtained using an EnVision fluorometer. Additional binding assays were established between PD-1-Ig/PD-L2-His (20 and 5 nM, respectively), CD80-His/PD-L1-Ig (100 and 10 nM, respectively) and CD80-His/CTLA4-Ig (10 and 5 nM, respectively). Binding/competition studies between biotinylated Compound No. 71 and human PD-L1-His were performed as follows. Macrocyclic peptide inhibitors were pre-incubated with PD-L1-His (10 nM final) for 60 minutes in 4 μl of assay buffer followed by addition of biotinylated Compound No. 71 (0.5 nM final) in 1 μl of assay buffer. Binding was allowed to equilibrate for 30 minutes followed by addition of europium crypated labeled Streptavidin (2.5 pM final) and APC-labeled anti-His (20 nM final) in 5 μl of HTRF buffer. The reaction was allowed to equilibrate for 30 m and signal (665 nm/620 nm ratio) was obtained using an EnVision fluorometer.

hPDL1(19-239)-TVMV-His [2] = biological target: T1, hPDL1(19-239)-TVMV-His; assay: HTRF competition of PD-1-Ig binding to PD-L1-His
Method: as §1, with “The reaction was allowed to equilibrate for 30 m and signal (665 nm/620 nm ratio) was obtained using an EnVision fluorometer.” left out

Binder | IC50 (hPDL1(19-239)-TVMV-His [1]) [nM] | IC50 (hPDL1(19-239)-TVMV-His [2]) [nM]
{CH2CO}-Y[NMeA]NP[Dap]L[Hyp]WGW[NMeNle][NMeNle]LCG-{piperazin‑2‑one} (thioether N-14, Macrocyclic peptide) [Example 13114] | 4 to 9.9 | 
{CH2CO}-Y[NMeA]NP[Dap]L[Hyp]WGW[NMeNle][NMeNle]LCG-{methyl 3‑aminopropionate} (thioether N-14, Macrocyclic peptide) [Example 13105] |  | 10
{CH2CO}-Y[NMeA]NP[Dap]L[Hyp]WGW[NMeNle][NMeNle]LCG-{4‑phenylpiperidine amide} (thioether N-14, Macrocyclic peptide) [Example 13088] |  | 50
{CH2CO}-Y[NMeA]NP[Dap]L[Hyp]WGW[NMeNle][NMeNle]LCG-{N‑(3-aminopropyl)morpholine amide} (thioether N-14, Macrocyclic peptide) [Example 13093] |  | 8.17
{CH2CO}-Y[NMeA]NP[Dap]L[Hyp]WGW[NMeNle][NMeNle]LCG-phenylpiperazine (thioether N-14, Macrocyclic peptide) [Example 13117] | 4 to 9.9 | 

From patent US20160272680A1 (Bristol-Myers Squibb, published 2016)
